According to publication PMC3614016:

What was measured:
[1] = target: PCNA (Homo sapiens) (UniProt P12004); details: cited from earlier work
[2] = target: mutant human PCNA (surface-exposed cysteines mutated, N107C), unlabeled (human) (UniProt P12004); assay: stopped-flow FRET between Cy3-P/T DNA and Cy5-PCNA, trapping experiment with polδ; As a2, with polδ at a ratio of 1:1:1 PCNA:Cy5-PCNA:polδ. The substrates were Cy3-P/T DNA, Cy3-P/T DNA-No Flap and Cy3-P/T DNA-25 bp. The read-out is the overall amplitude of reloading over that of unloading (0.5 = all unlabeled PCNA unloaded, 1.0 = all unlabeled PCNA kept on DNA).

Substance	Kd [1] [nM]	A (T,Reload)/A (T,Unload) with polδ (Cy3-P/T DNA) [2]	A (T,Reload)/A (T,Unload) with polδ (Cy3-P/T DNA-25 bp) [2]	A (T,Reload)/A (T,Unload) with polδ (Cy3-P/T DNA-No Flap) [2]
RFC (from UniProt P35251)	0.2			
wild-type human DNA polymerase δ (polδ) (complex)		1	1	0.99
